This is an account of results in publication PMC9133142 (Cell chemical biology, 2022).

Test [1] deals with MBP alone (negative control in BLI) (Escherichia coli K12, UniProt P0AEX9 = MBP). The test can be described thus: BLI. (In general: BLI is a label-free optical method that tracks binding on a fibre tip over time.)
For test [2], the target named is ZDIII-WT as used in BLI (taken as the His6-MBP-ZDIII-WT fusion protein) (Zika virus H/PF/2013, UniProt A0A024B7W1). The test can be described thus: BLI.
Test [3] has as its target ZDIII-WT, soluble purified protein with C-terminal SpyTag (Zika virus H/PF/2013, UniProt A0A024B7W1). The test can be described thus: ELISA. For orientation: An ELISA detects its analyte on a solid surface through an enzyme-linked reagent.

The Kd is the equilibrium constant for the complex coming apart. As a reminder, the EC50 is the concentration at which the effect is half-maximal. Low readings indicate an effect from little substance, high ones a need for much substance.

Sequence of UniProt A0A024B7W1 (A0A024B7W1 whole entry, looked up, the tested form may be a part): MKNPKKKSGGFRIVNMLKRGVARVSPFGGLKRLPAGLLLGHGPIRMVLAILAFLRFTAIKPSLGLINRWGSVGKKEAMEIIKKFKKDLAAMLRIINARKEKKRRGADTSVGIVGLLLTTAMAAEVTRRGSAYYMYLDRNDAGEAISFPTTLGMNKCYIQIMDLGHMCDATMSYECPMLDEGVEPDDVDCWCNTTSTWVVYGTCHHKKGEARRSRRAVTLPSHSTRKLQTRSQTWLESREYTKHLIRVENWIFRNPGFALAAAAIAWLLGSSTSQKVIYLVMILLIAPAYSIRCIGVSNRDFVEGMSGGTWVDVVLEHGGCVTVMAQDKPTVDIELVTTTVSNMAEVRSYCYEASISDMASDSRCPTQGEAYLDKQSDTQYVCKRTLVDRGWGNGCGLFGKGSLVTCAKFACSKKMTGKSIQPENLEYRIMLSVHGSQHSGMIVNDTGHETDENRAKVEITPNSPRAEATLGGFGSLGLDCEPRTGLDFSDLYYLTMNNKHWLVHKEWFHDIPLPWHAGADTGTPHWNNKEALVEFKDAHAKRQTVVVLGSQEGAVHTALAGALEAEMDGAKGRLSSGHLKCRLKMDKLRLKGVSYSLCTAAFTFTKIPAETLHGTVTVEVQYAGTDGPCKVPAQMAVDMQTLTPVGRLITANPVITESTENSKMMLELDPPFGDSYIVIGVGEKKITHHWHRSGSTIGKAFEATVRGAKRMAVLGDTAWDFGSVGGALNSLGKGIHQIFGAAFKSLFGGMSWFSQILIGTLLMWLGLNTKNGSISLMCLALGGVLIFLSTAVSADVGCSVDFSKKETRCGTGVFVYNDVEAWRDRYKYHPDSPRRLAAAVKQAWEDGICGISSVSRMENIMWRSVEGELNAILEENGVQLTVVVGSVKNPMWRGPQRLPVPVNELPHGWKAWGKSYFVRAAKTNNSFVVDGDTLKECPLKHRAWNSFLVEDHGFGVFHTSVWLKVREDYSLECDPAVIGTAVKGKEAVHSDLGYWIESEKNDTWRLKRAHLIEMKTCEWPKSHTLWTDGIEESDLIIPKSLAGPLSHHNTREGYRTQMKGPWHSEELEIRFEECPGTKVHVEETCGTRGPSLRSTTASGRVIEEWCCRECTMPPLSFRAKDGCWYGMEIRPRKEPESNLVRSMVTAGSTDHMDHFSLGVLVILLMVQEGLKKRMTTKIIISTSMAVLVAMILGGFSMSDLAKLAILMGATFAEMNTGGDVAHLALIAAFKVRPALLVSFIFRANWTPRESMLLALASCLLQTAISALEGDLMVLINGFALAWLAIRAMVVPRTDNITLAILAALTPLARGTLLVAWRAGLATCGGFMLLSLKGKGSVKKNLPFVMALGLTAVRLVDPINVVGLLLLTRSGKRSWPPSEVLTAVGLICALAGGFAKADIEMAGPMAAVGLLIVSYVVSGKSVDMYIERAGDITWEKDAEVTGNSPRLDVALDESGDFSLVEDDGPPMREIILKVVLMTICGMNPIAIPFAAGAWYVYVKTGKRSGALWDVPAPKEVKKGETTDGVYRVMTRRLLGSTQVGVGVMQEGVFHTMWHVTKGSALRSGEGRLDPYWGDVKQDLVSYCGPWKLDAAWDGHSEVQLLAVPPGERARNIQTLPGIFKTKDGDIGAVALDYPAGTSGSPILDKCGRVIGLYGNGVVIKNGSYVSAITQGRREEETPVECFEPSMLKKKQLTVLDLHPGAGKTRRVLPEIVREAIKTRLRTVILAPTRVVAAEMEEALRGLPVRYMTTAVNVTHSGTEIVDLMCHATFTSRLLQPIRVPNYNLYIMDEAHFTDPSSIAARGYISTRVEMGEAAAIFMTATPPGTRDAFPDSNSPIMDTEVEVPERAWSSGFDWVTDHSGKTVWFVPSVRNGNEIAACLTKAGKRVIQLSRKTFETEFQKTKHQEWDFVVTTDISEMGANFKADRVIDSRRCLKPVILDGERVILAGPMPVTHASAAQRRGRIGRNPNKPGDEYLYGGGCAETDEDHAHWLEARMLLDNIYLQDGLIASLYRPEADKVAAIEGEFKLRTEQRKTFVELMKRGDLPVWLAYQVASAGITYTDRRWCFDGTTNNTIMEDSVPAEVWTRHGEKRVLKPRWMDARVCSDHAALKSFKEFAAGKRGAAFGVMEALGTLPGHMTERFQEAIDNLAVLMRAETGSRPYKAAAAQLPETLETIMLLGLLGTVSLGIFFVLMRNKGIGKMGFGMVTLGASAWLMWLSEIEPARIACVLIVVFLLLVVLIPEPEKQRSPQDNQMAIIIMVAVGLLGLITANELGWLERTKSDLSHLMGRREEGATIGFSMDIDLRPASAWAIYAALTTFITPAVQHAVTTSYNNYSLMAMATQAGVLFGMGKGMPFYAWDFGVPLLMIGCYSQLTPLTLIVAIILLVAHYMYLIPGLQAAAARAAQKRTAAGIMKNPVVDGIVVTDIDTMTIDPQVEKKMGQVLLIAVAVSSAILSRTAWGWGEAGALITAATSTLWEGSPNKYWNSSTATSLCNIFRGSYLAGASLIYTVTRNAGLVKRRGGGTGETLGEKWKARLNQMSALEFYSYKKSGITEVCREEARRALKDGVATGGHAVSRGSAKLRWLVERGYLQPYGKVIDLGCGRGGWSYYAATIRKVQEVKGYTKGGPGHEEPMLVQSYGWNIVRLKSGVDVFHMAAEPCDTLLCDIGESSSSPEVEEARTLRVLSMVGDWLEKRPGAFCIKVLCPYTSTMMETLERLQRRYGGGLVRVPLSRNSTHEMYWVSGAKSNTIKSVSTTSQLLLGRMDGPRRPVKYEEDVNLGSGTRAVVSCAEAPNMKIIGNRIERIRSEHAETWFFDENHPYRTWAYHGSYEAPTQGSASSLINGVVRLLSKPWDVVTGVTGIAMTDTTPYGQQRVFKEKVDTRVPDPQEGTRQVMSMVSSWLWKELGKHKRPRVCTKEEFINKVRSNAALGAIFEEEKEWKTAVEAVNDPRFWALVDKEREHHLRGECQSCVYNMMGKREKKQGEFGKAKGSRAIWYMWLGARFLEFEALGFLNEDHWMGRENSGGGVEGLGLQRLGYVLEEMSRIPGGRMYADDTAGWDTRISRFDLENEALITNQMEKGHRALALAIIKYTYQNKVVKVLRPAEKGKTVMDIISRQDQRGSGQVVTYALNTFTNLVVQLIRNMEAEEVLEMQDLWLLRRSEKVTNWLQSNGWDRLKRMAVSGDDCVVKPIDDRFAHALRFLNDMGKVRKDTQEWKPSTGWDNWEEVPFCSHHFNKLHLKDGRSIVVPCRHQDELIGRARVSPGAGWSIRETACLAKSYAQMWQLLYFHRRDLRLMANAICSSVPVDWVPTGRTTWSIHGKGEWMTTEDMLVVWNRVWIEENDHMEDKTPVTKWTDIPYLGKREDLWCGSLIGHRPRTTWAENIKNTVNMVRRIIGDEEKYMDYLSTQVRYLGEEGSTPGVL

B1: mAb ZV-67 (antibody, V domains shown)
VH: QAQLQQSGTGLARPGASVKLSCKASGYTFTSYGISWVTQRAGQGLEWIGVIYPRSGNTYYNEKFRGKATLTADKSSSSAYMELRGLTAEDSAVYFCARENYGSVYWGQGTTLTVSS
VL: DIVMTQSQKFMSTSVGDRVSITCKASQNVGTAVAWYQQKPGQSPKLLIYSASNRYTGVPDRFTGSGSGTDFTLTISNMQSEDLADYFCQQFSSYPYTFGGGTKLEIK
B1: the binding result in test [1] is given as “no binding”. The same molecule registered a dissociation constant Kd in test [2] of 43 ± 1.1 nM. This molecule also showed a concentration for a half-maximal effect (EC50) in test [3] of 14 nM.

B2: mAb ZV-2 (antibody, V domains shown)
VH: QVQLQESGAELMKPGASVKLSCKTSGYTFIGYWIEWLKQRPGHGLEWVGEIFPGSGRTKYNEKFKGRATFTADTSSNMAYMQLSSLTTEDSAIYYCARYYYGSYYALDYWGQGTSVTVSS
VL: DIVMTQSPSSLSVSAGEKVTLSCKSSQSLLHSGNQKNYLAWYQQKPGQAPKLLIYGASTRESGVPDRFTGSGSGTDFTLTISSVQAEDLAVYYCQNDHSYPLTFGAGTKLELK
As for B2, the binding result in test [1] is “no binding”. In test [2], the Kd was determined as 10.7 ± 0.09 nM.
